Test results published in the supplement of paper PMC10567573.

B1: RAD51 (parent)
chain: APKKELINIKGISEAKADKILAEA

Variants of: B1
Assay: protein stability index of a GFP-peptide fusion (GPS, HEK-293T) (PSI 1-6); higher = more stable
Settings: c terminus: a fixed tail appended
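Note: lentivirally expressed fusions sorted by FACS into six bins by GFP to DsRed ratio, PSI derived from sequencing read proportions per bin multiplied by bin number.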

Row | Variant | protein stability index
1 | APKKELINLKGISEAKADKILAEA [I9L] | 4.62
2 | APKKELINFKGISEAKADKILAEA [I9F] | 4.51
3 | APKKELINYKGISEAKADKILAEA [I9Y] | 4.91
4 | APKKELINDKGISEAKADKILAEA [I9D] | 5.19
5 | APKKELINTKGISEAKADKILAEA [I9T] | 5.24
6 | APKKELINGKGISEAKADKILAEA [I9G] | 5.11
7 | APKKELINNKGISEAKADKILAEA [I9N] | 5.26
8 | APKKELINIKGISEAKADAILAEA [K19A] | 3.63
9 | APKKELINIKGISEAKADMILAEA [K19M] | 4.43
10 | APKKELINIKGISEAKADEILAEA [K19E] | 5.12
11 | APKKELINIKGISEAKADLILAEA [K19L] | 3.89
12 | APKKELINIKGISEAKADDILAEA [K19D] | 4.98
13 | APKKELINIKGISEAKADNILAEA [K19N] | 4.84
14 | APKKELINIKGISEAKADCILAEA [K19C] | 4.44
15 | APKKELINIKGISEAKADSILAEA [K19S] | 4.89
16 | APKKELINIKGISEAKADYILAEA [K19Y] | 4.61
17 | APKKELINIKGISEAKADWILAEA [K19W] | 3.48
18 | APKKELINIKGISEAKADKILREA [A22R] | 4.84
19 | APKKELINIKGISEAKADKILKEA [A22K] | 5.24
20 | APKKELINIKGISEAKADKILSEA [A22S] | 4.61
21 | APKKELINIKGISEAKADKILDEA [A22D] | 5.38
22 | APKKELINIKGISEAKADKIGAEA [L21G] | 4.73
23 | APKKELINIKGISEAKADKIRAEA [L21R] | 4.96
24 | APKKELINIKGISEAKADKIFAEA [L21F] | 4.13

Row | Variant | protein stability index
25 | APKKELINIKGISEAKADKIQAEA [L21Q] | 5.18
26 | APKKELINIKGISEAKADKIAAEA [L21A] | 4.91
27 | APKKELINIKGISEAKADKIWAEA [L21W] | 4.27
28 | APKKELINIKGISEAKADKIIAEA [L21I] | 5.32
29 | APKKELINIKGISEAKADKIHAEA [L21H] | 4.95
30 | AWKKELINIKGISEAKADKILAEA [P2W] | 3.79
31 | AKKKELINIKGISEAKADKILAEA [P2K] | 4.34
32 | AMKKELINIKGISEAKADKILAEA [P2M] | 4.53
33 | AEKKELINIKGISEAKADKILAEA [P2E] | 4.7
34 | AIKKELINIKGISEAKADKILAEA [P2I] | 4.01
35 | APKKELINIKGISEAKADKMLAEA [I20M] | 5.16
36 | APKKELINIKGISEAKADKFLAEA [I20F] | 4.02
37 | APKKELINIKGISEAKADKYLAEA [I20Y] | 4.61
38 | APKKELINIKGISEAKADKSLAEA [I20S] | 4.95
39 | APKKELINIKGISEAKADKCLAEA [I20C] | 5.14
40 | APKKELINIKGISEAKADKVLAEA [I20V] | 4.97
41 | APKKELINIKGISEAKADKHLAEA [I20H] | 5.11
42 | APKKELINIKGISEAKADKNLAEA [I20N] | 5.38
43 | APKKELINIKGISEAKADKWLAEA [I20W] | 4.26
44 | APKKELINIKGISEAKADKPLAEA [I20P] | 5.5
45 | APKKELINIKGISEAKADKKLAEA [I20K] | 5.46
46 | APKKYLINIKGISEAKADKILAEA [E5Y] | 3.1
47 | APKKNLINIKGISEAKADKILAEA [E5N] | 4.22
48 | APKKGLINIKGISEAKADKILAEA [E5G] | 4.63

Row | Variant | protein stability index
49 | APKKSLINIKGISEAKADKILAEA [E5S] | 4.34
50 | APKKCLINIKGISEAKADKILAEA [E5C] | 3.56
51 | APKKLLINIKGISEAKADKILAEA [E5L] | 3.65
52 | APKKTLINIKGISEAKADKILAEA [E5T] | 3.85
53 | APKKWLINIKGISEAKADKILAEA [E5W] | 3.01
54 | APKKELINIKGISEAMADKILAEA [K16M] | 3.59
55 | APKKELINIKGISEAGADKILAEA [K16G] | 5.01
56 | APKKELINIKGISEADADKILAEA [K16D] | 5
57 | APKKELINIKGISEANADKILAEA [K16N] | 5.08
58 | APKKELINIKGISEASADKILAEA [K16S] | 4.61
59 | APKKELINIKGISEACADKILAEA [K16C] | 4.63
60 | APKKELINIKGISEAQADKILAEA [K16Q] | 4.65
61 | APKKELINIKGISEAEADKILAEA [K16E] | 5.08
62 | APKKELINIKGISEAHADKILAEA [K16H] | 4.78
63 | APKKELINIKGISEAYADKILAEA [K16Y] | 3.93
64 | APKKELINIKGISEARADKILAEA [K16R] | 4.53
65 | APKKELINIKGISEAAADKILAEA [K16A] | 4.47
66 | APKKELINIPGISEAKADKILAEA [K10P] | 4.34
67 | APKKELINIEGISEAKADKILAEA [K10E] | 5.1
68 | APKKELININGISEAKADKILAEA [K10N] | 4.42
69 | APKKELINIAGISEAKADKILAEA [K10A] | 4.56
70 | APKKELINIVGISEAKADKILAEA [K10V] | 4.38
71 | APKKELINIIGISEAKADKILAEA [K10I] | 3.64
72 | APKKELINIDGISEAKADKILAEA [K10D] | 5.12

Row | Variant | protein stability index
73 | APKKELINIRGISEAKADKILAEA [K10R] | 4.2
74 | APKKELINIYGISEAKADKILAEA [K10Y] | 3.8
75 | IPKKELINIKGISEAKADKILAEA [A1I] | 4.39
76 | VPKKELINIKGISEAKADKILAEA [A1V] | 4.08
77 | FPKKELINIKGISEAKADKILAEA [A1F] | 3.87
78 | EPKKELINIKGISEAKADKILAEA [A1E] | 5.23
79 | WPKKELINIKGISEAKADKILAEA [A1W] | 3.75
80 | GPKKELINIKGISEAKADKILAEA [A1G] | 4.71
81 | YPKKELINIKGISEAKADKILAEA [A1Y] | 3.83
82 | TPKKELINIKGISEAKADKILAEA [A1T] | 4.41
83 | APKKELINIKGISEAKADKILAER [A24R] | 4.83
84 | APKKELINIKGISEAKADKILAEW [A24W] | 3.97
85 | APKKELINIKGISEAKADKILAEC [A24C] | 4.51
86 | APKKELINIKGISEAKADKILAED [A24D] | 4.83
87 | APKKELINIKGISEAKADKILAEE [A24E] | 3.9
88 | APKKELINIKGISEAKADKILAEL [A24L] | 4.4
89 | APKKELINIKGISEAKADKILAEG [A24G] | 4.9
90 | APKKELINIKGISEAKADKILAEK [A24K] | 5.26
91 | APKKELINIKGISEAKADKILAEI [A24I] | 3.61
92 | APKKELINIKGISEAKADKILAEF [A24F] | 3.53
93 | APKKELINIKGISEAKADKILAEN [A24N] | 4.96
94 | APKKELINIKGISEAKADKILAET [A24T] | 5.36
